According to US20160090427A1 (SAMSUNG ELECTRONICS, published 2016):

B1: MV-15 anti-c-Met/anti-VEGF bispecific antibody (bispecific antibody, human IgG2, kappa)
heavy: EVQLVESGGGLVQPGGSLRLSCAASGFTFTDYYMSWVRQAPGKGLEWLGFIRNKANGYTTEYSASVKGRFTISRDNSKNTLYLQMNSLRAEDTAVYYCARDNWFAYWGQGTLVTVSSASTKGPSVFPLAPCSRSTSESTAALGCLVKDYFPEPVTVSWNSGALTSGVHTFPAVLQSSGLYSLSSVVTVPSSNFGTQTYTCNVDHKPSNTKVDKTVERKCCVECPPCPAPPVAGPSVFLFPPKPKDTLMISRTPEVTCVVVDVSHEDPEVQFNWYVDGVEVHNAKTKPREEQFNSTFRVVSVLTVVHQDWLNGKEYKCKVSNKGLPAPIEKTISKTKGQPREPQVYTLPPSREEMTKNQVSLTCLVKGFYPSDIAVEWESNGQPENNYKTTPPMLDSDGSFFLYSKLTVDKSRWQQGNVFSCSVMHEALHNHYTQKSLSLSPGKGGGGSGGGGSEVQLLESGGGLVQPGGSLRLSCAASGFTFSGYAMSWVRQAPGKGLEWVSSIYSSSGSKYYADSVKGRFTISRDNSKNTLYLQMNSLRAEDTAVYYCARASSTCTRTWCSYDDAMDVWGQGTLVTVSSGGGGSGGGGSGGGGSQSVLTQPPSASGTPGQRVTISCTGSSSNIGNNAVTWYQQLPGTAPKLLIYDDSHRPSGVPDRFSGSKSGTSASLAISGLRSEDEADYYCGTWDYSLSGYVFGGGTKLTVLG
light: DIQMTQSPSSLSASVGDRVTITCKSSQSLLASGNQNNYLAWYQQKPGKAPKMLIIWASTRVSGVPSRFSGSGSGTDFTLTISSLQPEDFATYYCQQSYSRPYTFGQGTKVEIKRTVAAPSVFIFPPSDEQLKSGTASVVCLLNNFYPREAKVQWKVDNALQSGNSQESVTEQDSKDSTYSLSSTLTLSKADYEKHKVYACEVTHQGLSSPVTKSFNRGEC
notes: This is an inference
B2: MV-16 anti-c-Met/anti-VEGF bispecific antibody (bispecific antibody, human IgG2, kappa)
heavy: EVQLVESGGGLVQPGGSLRLSCAASGFTFTDYYMSWVRQAPGKGLEWLGFIRNKANGYTTEYSASVKGRFTISRDNSKNTLYLQMNSLRAEDTAVYYCARDNWFAYWGQGTLVTVSSASTKGPSVFPLAPCSRSTSESTAALGCLVKDYFPEPVTVSWNSGALTSGVHTFPAVLQSSGLYSLSSVVTVPSSNFGTQTYTCNVDHKPSNTKVDKTVERKCCVECPPCPAPPVAGPSVFLFPPKPKDTLMISRTPEVTCVVVDVSHEDPEVQFNWYVDGVEVHNAKTKPREEQFNSTFRVVSVLTVVHQDWLNGKEYKCKVSNKGLPAPIEKTISKTKGQPREPQVYTLPPSREEMTKNQVSLTCLVKGFYPSDIAVEWESNGQPENNYKTTPPMLDSDGSFFLYSKLTVDKSRWQQGNVFSCSVMHEALHNHYTQKSLSLSPGKGGGGSGGGGSEVQLLESGGGLVQTGGSLRLSCAASGFTFSDYAMSWVRQAPGKGLEWVSSIYPGSGSKYYADSVKGRFAISRDNSKNTLYLQMNSLRAEDTAVYYCARDAWFRGHNVFDYWGQGTLVTVSSGGGGSGGGGSGGGGSQSVLTQPPSASGTPGQRVTISCTGSSSNIGSNNVTWYQQLPGTAPKLLIYSDSHRPSGVPDRFSGSKSGTSASLAISGLQSEDEADYYCGSWDYSLSAYVFGGGTKLTVLG
light: B1 light
B3: MV-17 anti-c-Met/anti-VEGF bispecific antibody (bispecific antibody, human IgG2, kappa)
heavy: EVQLVESGGGLVQPGGSLRLSCAASGFTFTDYYMSWVRQAPGKGLEWLGFIRNKANGYTTEYSASVKGRFTISRDNSKNTLYLQMNSLRAEDTAVYYCARDNWFAYWGQGTLVTVSSASTKGPSVFPLAPCSRSTSESTAALGCLVKDYFPEPVTVSWNSGALTSGVHTFPAVLQSSGLYSLSSVVTVPSSNFGTQTYTCNVDHKPSNTKVDKTVERKCCVECPPCPAPPVAGPSVFLFPPKPKDTLMISRTPEVTCVVVDVSHEDPEVQFNWYVDGVEVHNAKTKPREEQFNSTFRVVSVLTVVHQDWLNGKEYKCKVSNKGLPAPIEKTISKTKGQPREPQVYTLPPSREEMTKNQVSLTCLVKGFYPSDIAVEWESNGQPENNYKTTPPMLDSDGSFFLYSKLTVDKSRWQQGNVFSCSVMHEALHNHYTQKSLSLSPGKGGGGSGGGGSEVQLLESGGGLVQPGGSLRLSCAASGFTFSNYDMSWVRQAPGKGLEWVSGIYPNGGSKYYADSVKGRFTISRDNSKNTLYLQMNSLRAEDTAVYYCARALRQCQRYWCSYADGMDVWGQGTLVTVSSGGGGSGGGGSGGGGSQSVLTQPPSASGTPGQRVTISCTGSSSNIGSNYVSWYQQLPGTAPKLLIYADSQRPSGVPDRFSGSKSGTSASLAISGLRSEDEADYYCGTWDYSLSGYVLGGGTKLTVLG
light: B1 light

Each binder was assayed against T1, human c-Met/Fc fusion protein (R&D Systems) (human, UniProt P08581 25-932) (assay: SPR (Biacore T100), bispecific captured by human Fab binder on CM5 chip, c-Met-Fc injected).
T1 construct: Bought reagent; also called c-Met-Fc (#358-MT/CF, R&D Systems); human c-Met/Fc protein; not shown: Fc part of the bought fusion protein
T1 sequence (P08581 25-932 limits assumed): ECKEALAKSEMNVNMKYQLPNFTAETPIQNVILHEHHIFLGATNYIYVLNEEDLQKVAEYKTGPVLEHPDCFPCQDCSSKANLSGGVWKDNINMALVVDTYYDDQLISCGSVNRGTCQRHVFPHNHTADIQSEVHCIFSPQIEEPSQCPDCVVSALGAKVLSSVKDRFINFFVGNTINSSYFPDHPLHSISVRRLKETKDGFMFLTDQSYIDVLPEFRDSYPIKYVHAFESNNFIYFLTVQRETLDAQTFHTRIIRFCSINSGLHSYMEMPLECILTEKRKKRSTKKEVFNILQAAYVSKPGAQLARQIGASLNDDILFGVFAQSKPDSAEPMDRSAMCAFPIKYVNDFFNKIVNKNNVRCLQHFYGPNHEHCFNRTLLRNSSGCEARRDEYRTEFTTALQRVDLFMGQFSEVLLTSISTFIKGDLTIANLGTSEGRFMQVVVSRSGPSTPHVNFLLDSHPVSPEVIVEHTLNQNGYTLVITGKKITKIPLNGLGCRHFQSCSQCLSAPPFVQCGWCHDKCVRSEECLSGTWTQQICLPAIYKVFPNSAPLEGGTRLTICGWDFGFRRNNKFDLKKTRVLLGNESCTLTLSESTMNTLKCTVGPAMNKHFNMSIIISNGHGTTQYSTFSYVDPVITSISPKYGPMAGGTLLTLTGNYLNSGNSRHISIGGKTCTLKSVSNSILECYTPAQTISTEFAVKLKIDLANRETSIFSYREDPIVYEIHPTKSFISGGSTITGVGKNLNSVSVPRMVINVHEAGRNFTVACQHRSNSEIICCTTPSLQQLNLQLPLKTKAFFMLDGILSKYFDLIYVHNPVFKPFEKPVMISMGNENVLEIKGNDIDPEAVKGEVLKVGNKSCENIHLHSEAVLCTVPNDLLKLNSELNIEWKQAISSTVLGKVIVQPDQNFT
Procedure: An examination on whether the anti-c-Met/anti-VEGF bispecific antibody maintains binding affinity to c-Met was conducted using Biacore T100(GE). A human Fab binding agent (GE Healthcare) was immobilized onto a CM5 chip (#BR-1005-30, GE) according to the manufacturer's instructions. About 90˜120 RU of the anti-c-Met/anti-VEGF bispecific antibody was captured, and c-Met-Fc (#358-MT/CF, R&D Systems) was injected thereto at various concentrations. Then, 10 mM Glycine-HCl (pH 2.1) solution was injected thereto to regenerate the surface. The obtained data were fitted using BlAevaluation software (GE Healthcare, Biacore T100 evaluation software), to measure the binding affinity to c-Met.

Binder | Kd
B1 | 0.1 nM
B2 | 0.21 nM
B3 | 0.09 nM

Each binder was assayed against VEGF (R&D systems) (UniProt P15692-4 27-191, limits assumed) (assay: SPR (Biacore T100), CM5 chip, VEGF; format unclear in the text).
Chain of VEGF (R&D systems) (P15692 other isoform, or with tags, fused parts or gaps limits assumed): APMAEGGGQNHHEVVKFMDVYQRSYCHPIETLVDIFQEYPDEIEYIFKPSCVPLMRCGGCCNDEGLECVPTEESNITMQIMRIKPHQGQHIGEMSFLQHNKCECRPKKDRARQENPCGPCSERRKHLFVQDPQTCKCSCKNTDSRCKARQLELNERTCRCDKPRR
Procedure: An examination on whether the 8 anti-c-Met/anti-VEGF bispecific antibodies prepared in Example 2 maintains binding affinity to VEGF was conducted using Biacore T100(GE). VEGF (R&D systems) immobilized on the surface of CM5 chip (#BR-1005-30, GE) by amino coupling according to the manufacturer's instructions. About 90˜120 RU of the anti-c-Met/anti-VEGF bispecific antibody was captured, and […] was injected thereto at various concentrations. Then, a solution containing 1M NaCl and 5 mM NaOH was injected thereto to regenerate the surface. The obtained data were fitted using BlAevaluation software (GE Healthcare, Biacore T100 evaluation software), to measure the binding affinity to VEGF.

Binder | Kd
B1 | 6.83 nM
B2 | 14.8 nM
B3 | 5.76 nM
